According to publication PMC2812701, “RelB and RelE of Escherichia coli Form a Tight Complex That Represses Transcription via the Ribbon–Helix–Helix Motif in RelB” (Journal of Molecular Biology, 2009):
Several values for one entry are separate records, joined by “and”; a condition that tells them apart may be missing. Equal values may be shown once.

What was measured:
RelB-Cys (E. coli) [1] = target: RelB-Cys (E. coli) (UniProt P0C079); test: SPR; Biacore 3000, CM5 chip; about 40 RU RelB-Cys immobilised by ligand thiol coupling; His6-RelE injected at 12.5-100 nM, 60 ul/min; HBS-EP (10 mM Hepes, 150 mM NaCl, 0.005% Tween 20, 3 mM EDTA, pH 7.4); 1:1 Langmuir fit; apparent Kd (koff/kon)
HMK-RelB (E. coli) = target: T1, HMK-RelB (E. coli) (UniProt P0C079)
T1 sequence (chain, 32P label on the N-terminal HMK-tag (RRASV)): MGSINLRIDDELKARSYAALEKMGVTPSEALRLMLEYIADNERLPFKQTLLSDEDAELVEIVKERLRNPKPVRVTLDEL

RelB-Cys (E. coli) [2] = target: RelB-Cys (E. coli) (UniProt P0C079); test: SPR; Biacore 3000, CM5 chip; RelB-Cys immobilised by ligand thiol coupling; Lon-His6 injected at 200 nM with or without MgCl2 (8 mM) and ATP (2 mM), and at 12.5-100 nM (monomer) for kinetics; 60 ul/min; HBS-EP pH 7.4; apparent Kd
[3] = system: RelB K13A;His6-RelE (Escherichia coli;Escherichia coli); test: EMSA; details: EMSA and footprint binding buffer as in an earlier paper (not given); footprint binding volume 35 ul, radical cleavage 37 C 1 min; native PAGE for EMSA
[4] = system: RelB R7A;His6-RelE (Escherichia coli;Escherichia coli); test: EMSA; details: EMSA and footprint binding buffer as in an earlier paper (not given); footprint binding volume 35 ul, radical cleavage 37 C 1 min; native PAGE for EMSA
[5] = system: RelB S28L;His6-RelE (Escherichia coli;Escherichia coli); test: EMSA; details: EMSA and footprint binding buffer as in an earlier paper (not given); footprint binding volume 35 ul, radical cleavage 37 C 1 min; native PAGE for EMSA
His6-RelE [6] = target: T2, His6-RelE (E. coli, UniProt P0C077 1-95); test: amino acid analysis of the co-purified complex; purified RelB·RelE complex preformed in vivo (Table S2); details: partners not purified
T2 construct: toxin RelE (mRNA interferase) of the relBE locus, Escherichia coli, wild type; also called co-repressor RelE; mRNA interferase RelE; source: also in cells, co-expressed with RelB; not shown: His6, N-terminal, kept
T2 sequence (looked up): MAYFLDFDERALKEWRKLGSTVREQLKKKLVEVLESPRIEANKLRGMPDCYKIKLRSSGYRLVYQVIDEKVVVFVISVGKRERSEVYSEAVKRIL

[7] = target: the molecule itself; test: cross-linking; chemical cross-linking of WT RelB and the mutated variants with BS3 [bis(sulfosuccinimidyl) suberate] (Fig. S1)
His6-RelE [8] = target: T2, His6-RelE; test: other fluorescence titration; tryptophan fluorescence of His6-RelE (0.35 uM) titrated with RelB; 25 °C; phosphate-buffered saline pH 7.4; excitation 295 nm, emission about 330 nm; details: both partners purified

With “His6-RelE (from UniProt P0C077 1-95) (natural protein)” the Kd (RelB-Cys (E. coli) [1]) was 0.33 nM, the in vitro half-life of the complex (RelB-Cys (E. coli) [1]) was 1.17 h and the koff (RelB-Cys (E. coli) [1]) was 0.000166 s⁻¹. The kon (RelB-Cys (E. coli) [1]) was 501000 M⁻¹ s⁻¹.

“Lon-His6 (from UniProt P0A9M0 1-784) (enzyme)” was tested, and the in vitro degradation of 32P-labelled HMK-RelB (0.13 uM) by Lon (0.6 uM) at 37 °C, ATP- and Mg2+-dependent, time course up to 120 min; in vitro half-life of HMK-RelB (HMK-RelB (E. coli)) was > 1 h, the Kd (RelB-Cys (E. coli) [2]) was < 2 nM and the koff (RelB-Cys (E. coli) [2]) was 0.000234 s⁻¹.

With relO166 (Cy5) the K half [3] was > 1250 nM, the K half [4] was > 1250 nM and the K half [5] was > 1250 nM.

B1: RelB (wild type) (natural protein, E. coli, UniProt P0C079 1-79, looked up)
chain: MGSINLRIDDELKARSYAALEKMGVTPSEALRLMLEYIADNERLPFKQTLLSDEDAELVEIVKERLRNPKPVRVTLDEL
notes: antitoxin RelB of the relBE locus, Escherichia coli, wild type; also called WT RelB; antitoxin RelB; source: also in cells, co-expressed with His6-RelE
B1 was tested, and the “stoichiometry N” value (His6-RelE [6]) was 2 RelB/RelE, the “stoichiometry N” value [7] was 2 and 4 and the “stoichiometry N” value (His6-RelE [8]) was ~2 RelB/RelE.

B2: RelB^R7A (natural protein, E. coli, UniProt P0C079 1-79, looked up)
chain: MGSINLAIDDELKARSYAALEKMGVTPSEALRLMLEYIADNERLPFKQTLLSDEDAELVEIVKERLRNPKPVRVTLDEL
notes: antitoxin RelB, Escherichia coli, with R7A; also called RelB RHH variant R7A; source: also in cells, co-expressed with His6-RelE
B2: binds [7].

B3: RelB^S28R (natural protein, E. coli, UniProt P0C079 1-79, looked up)
chain: MGSINLRIDDELKARSYAALEKMGVTPREALRLMLEYIADNERLPFKQTLLSDEDAELVEIVKERLRNPKPVRVTLDEL
notes: antitoxin RelB, Escherichia coli, with S28R; also called RelB RHH variant S28R; source: also in cells, co-expressed with His6-RelE
For B3, the “stoichiometry N” value [7] was 2 and 4.

B4: RelB^I8A (natural protein, E. coli, UniProt P0C079 1-79, looked up)
chain: MGSINLRADDELKARSYAALEKMGVTPSEALRLMLEYIADNERLPFKQTLLSDEDAELVEIVKERLRNPKPVRVTLDEL
notes: antitoxin RelB, Escherichia coli, with I8A; also called RelB RHH variant I8A; source: also in cells, co-expressed with His6-RelE
In the case of B4, the “stoichiometry N” value [7] is reported as 2 and 4.

B5: RelB^K13A (natural protein, E. coli, UniProt P0C079 1-79, looked up)
chain: MGSINLRIDDELAARSYAALEKMGVTPSEALRLMLEYIADNERLPFKQTLLSDEDAELVEIVKERLRNPKPVRVTLDEL
notes: antitoxin RelB, Escherichia coli, with K13A; also called RelB RHH variant K13A; source: also in cells, co-expressed with His6-RelE
B5: binds [7].

B6: RelB^S28L (natural protein, E. coli, UniProt P0C079 1-79, looked up)
chain: MGSINLRIDDELKARSYAALEKMGVTPLEALRLMLEYIADNERLPFKQTLLSDEDAELVEIVKERLRNPKPVRVTLDEL
notes: antitoxin RelB, Escherichia coli, with S28L; also called RelB RHH variant S28L; source: also in cells, co-expressed with His6-RelE
B6 was tested, and the “stoichiometry N” value [7] was 2 and 4.
